# Measured values as given in patent publication US20260103490A1 (published 2026).
# T1: ALFA^ST peptide (Ac-PSRLEEELRRRLTEP-Amide)
# T1 construct: also called free ALFA^ST peptide; ALFA peptide
# T1 peptide: Ac-PSRLEEELRRRLTEP-NH2
# B1: NbALFA^ST (NbALFA clone 1G5) (VHH)
# VHH: EVQLQESGGGLVQPGGSLRLSCTASGVTISALNAMAMGWYRQAPGERRVMVAAVSERGNAMYRESVQGRFTVTRDFTNKMVSLQMDNLKPEDTAVYYCHVLEDRVDSFHDYWGQGTQVTVSS
# notes: Alpaca single-domain antibody; also called ALFA Selector^ST (resin-immobilised form); FluoTag-X2 anti-ALFA (fluorophore-coupled form)
# B2: NbALFA^PE (NbALFA mutant for Peptide Elution) (VHH)
# VHH: EVQLQESGGGLVQPGGSLRLSCTASGVTISALNAMAMGWYRQAPGEERVMVAAVSSRGNAMYRESVQGRFTVTRDFTNKMVSLQMDNLKPEDTAVYYCHVLEDRVDSFHDYWGQGTQVTVSS
# notes: Weaker mutant of NbALFA^ST; used immobilised on agarose (ALFA Selector^PE) or in solution (MST); also called ALFA Selector^PE (resin-immobilised form)
# What was measured:
# [1] = biological target: FLAG-HA-MBP-myc-ALFA^ST; test: dot blot of a dilution series of the MBP fusion
# Description: Membranes were scanned using Odyssey CLx (Li-COR). Quantifications were performed using ImageStudioLight (Li-COR).
# [2] = biological target: T1, ALFA^ST peptide …; test: competitive elution of shGFP2-ALFA^ST from NbALFA^PE resin
Binder,fold lower detection limit than for the other epitope tags [1] [fold],binding result [2]
B1,~10,–
B2,–,binds
